Substitutions are numbered along the chain they refer to. In names and notes the source's numbering stands. Several values for one entry are separate records, joined by “and”; a condition that tells them apart may be missing. Equal values may be shown once. One block for each binder: values may come before it.
How the values were obtained:
[1] = target: integrins on CHO cells (α5β1+ and αvβ3 low), PSGL-1 negative; test: cell-based or functional assay
soluble integrin αvβ3 = target: T1, soluble integrin αvβ3 (UniProt P06756 31-992; P05106 27-718); test: ELISA-type, coated proteins, soluble integrin
T1 construct: Soluble integrin used at 1 µg/ml; also called soluble αvβ3

[2] = target: T2, soluble recombinant integrin αIIbβ3 (UniProt P08514 32-993; P05106 27-718); test: ELISA-type, coated proteins, soluble integrin
T2 construct: Bought (AgroBio), used at 1 µg/ml; also called soluble αIIbβ3

T1 sequence (P06756 31-992, chain 1 of 2): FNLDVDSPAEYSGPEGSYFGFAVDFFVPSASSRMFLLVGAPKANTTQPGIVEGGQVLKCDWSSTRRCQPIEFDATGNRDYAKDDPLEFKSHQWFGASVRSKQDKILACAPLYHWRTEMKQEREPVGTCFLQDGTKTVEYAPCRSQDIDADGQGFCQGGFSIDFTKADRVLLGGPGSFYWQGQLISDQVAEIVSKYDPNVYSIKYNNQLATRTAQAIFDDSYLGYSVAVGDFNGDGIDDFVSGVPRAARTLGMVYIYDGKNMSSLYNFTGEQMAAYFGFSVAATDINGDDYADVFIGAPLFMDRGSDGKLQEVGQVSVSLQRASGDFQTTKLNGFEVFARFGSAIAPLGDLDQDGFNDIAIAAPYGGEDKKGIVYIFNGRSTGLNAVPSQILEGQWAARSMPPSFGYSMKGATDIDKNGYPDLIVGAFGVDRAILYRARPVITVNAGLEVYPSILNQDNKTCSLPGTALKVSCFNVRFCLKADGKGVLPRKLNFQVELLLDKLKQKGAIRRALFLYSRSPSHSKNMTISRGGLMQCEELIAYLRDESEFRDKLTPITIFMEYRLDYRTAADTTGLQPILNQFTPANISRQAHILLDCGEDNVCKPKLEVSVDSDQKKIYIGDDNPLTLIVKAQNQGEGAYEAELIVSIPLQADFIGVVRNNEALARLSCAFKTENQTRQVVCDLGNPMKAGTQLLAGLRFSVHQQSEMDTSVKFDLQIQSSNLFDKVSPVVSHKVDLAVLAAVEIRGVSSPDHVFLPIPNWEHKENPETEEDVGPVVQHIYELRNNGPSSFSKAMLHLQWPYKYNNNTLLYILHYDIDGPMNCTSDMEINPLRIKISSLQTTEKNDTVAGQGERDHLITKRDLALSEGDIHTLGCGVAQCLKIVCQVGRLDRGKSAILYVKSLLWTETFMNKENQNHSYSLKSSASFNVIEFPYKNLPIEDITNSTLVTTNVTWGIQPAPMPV
T1 sequence (P05106 27-718, chain 2 of 2): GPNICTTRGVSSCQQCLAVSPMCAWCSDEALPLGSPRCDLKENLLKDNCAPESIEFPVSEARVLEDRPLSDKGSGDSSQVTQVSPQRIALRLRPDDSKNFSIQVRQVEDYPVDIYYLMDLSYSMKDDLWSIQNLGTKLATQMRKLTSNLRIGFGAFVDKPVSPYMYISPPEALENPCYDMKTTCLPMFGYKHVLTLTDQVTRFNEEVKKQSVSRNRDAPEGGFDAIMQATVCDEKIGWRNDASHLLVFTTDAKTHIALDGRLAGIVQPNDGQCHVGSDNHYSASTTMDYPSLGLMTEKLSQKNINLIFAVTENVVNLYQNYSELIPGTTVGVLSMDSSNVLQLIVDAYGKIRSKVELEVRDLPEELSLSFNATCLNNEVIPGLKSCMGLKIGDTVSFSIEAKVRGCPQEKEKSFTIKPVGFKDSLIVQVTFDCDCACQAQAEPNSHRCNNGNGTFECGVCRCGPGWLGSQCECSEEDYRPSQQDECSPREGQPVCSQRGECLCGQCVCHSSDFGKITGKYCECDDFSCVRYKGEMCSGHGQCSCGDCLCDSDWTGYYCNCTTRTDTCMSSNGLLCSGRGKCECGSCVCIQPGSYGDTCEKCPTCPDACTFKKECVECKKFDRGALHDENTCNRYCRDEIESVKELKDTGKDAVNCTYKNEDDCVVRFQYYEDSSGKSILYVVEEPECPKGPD

adhesion of CHO cells to immobilized lectin domain [1]: 70% and > 90%
fold binding against the combined lectin and EGF-like domains (soluble integrin αvβ3): ~2 fold
fold binding against the combined lectin and EGF-like domains [2]: ~2 fold
B1: C-type lectin domain of CD62P (P-selectin), wild type, residues 1-117 (ligand, not shown: small tags and cut ends)
chain: WTYHYSTKAYSWNISRKYCQNRYTDLVAIQNKNEIDYLNKVLPYYSSYYWIGIRKNNKTWTWVGTKKALTNEAENWADNEPNNKRNNEDCVEIYIKSPSAPGKWNDEHCLKKKHALC
notes: also called the lectin domain; CD62P lectin domain

adhesion of CHO cells to immobilized lectin domain [1]: 60%
B2: CD62P lectin domain mutant R16E/K17E, P16109 42-158 (ligand, not shown: small tags and cut ends)
chain: B1 chain with R16E, K17E
